Source: patent US20170152311A1 (published 2017)

T1: recombinant human M-CSF (human, UniProt P09603 33-190, limits assumed)
T1 construct: The active form is described as a disulfide bonded dimer; also called M-SCF; CSF-1
T1 sequence: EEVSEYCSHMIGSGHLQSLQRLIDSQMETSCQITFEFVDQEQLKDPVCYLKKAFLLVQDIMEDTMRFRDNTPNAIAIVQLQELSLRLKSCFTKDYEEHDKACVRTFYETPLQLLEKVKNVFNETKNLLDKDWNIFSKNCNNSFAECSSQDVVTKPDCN


Columns and labels:
recombinant human M-CSF [1] = target: T1, recombinant human M-CSF; assay: SPR (Biacore), antibody captured on anti-mouse Fc chip, M-CSF flowed, 25 C, 1:1 model
Method: Binding properties of the aforementioned antibodies were analyzed using Biacore analyses. […] The aforementioned antibodies were then captured on the anti-mouse Fc/CM5 biosensor chip at 1.5 μg/ml for 3 min at 2 μl/min. MCSF was flowed over the modified biosensor surface at varying concentrations (Rmax ˜15). Test antibodies and antigen were diluted in 0.01 M HEPES pH 7.4, 0.15 M NaCL, 3 mM EDTA, 0.005% Surfactant P20 (HBS-EP). All experiments were performed at 25° C. Kinetic and affinity constants were determined using Biaevaluation software (Biacore) with a 1:1 interaction model/global fit.

recombinant human M-CSF [2] = target: T1, recombinant human M-CSF; assay: cell-based or functional assay
recombinant human M-CSF [3] = target: T1, recombinant human M-CSF; assay: SPR (Biacore), M-CSF amine-coupled on CM5 chip, antibody flowed
Method: (§1) To determine the relative differences in the binding affinity of intact antibodies by Biacore analysis, M-CSF was immobilized onto CMS biosensor chip via amine coupling. 0.05 μg/ml M-CSF in 10 mM Na-Acetate pH 4.0 was injected at 1 μl/min for 5 minutes to achieve RL=6-12 RU. Test antibody or Fab fragments were flowed over the modified biosensor surface at varying concentrations ranging from 100 nM to 1.5 nM in 2-fold dilutions. Test antibodies were diluted in 0.01 M HEPES pH 7.4, 0.15 M NaCL, 3 mM EDTA, 0.005% Surfactant P20 (HBS-EP) and all experiments were done at 25° C. Each concentration point and buffer blanks were run in triplicate, and data was collected over 3 minutes of association and 8 minutes of dissociation. Kinetic and affinity constants were determined using Biaevaluation software with a 1:1 interaction model/global fit.

recombinant human M-CSF [4] = target: T1, recombinant human M-CSF; assay: SPR (Biacore), M-CSF amine-coupled on CM5 chip, antibody flowed, 25 C, 1:1 model, n = 5
Method: as §1

recombinant human M-CSF [5] = target: T1, recombinant human M-CSF; assay: SPR (Biacore), M-CSF amine-coupled on CM5 chip, antibody flowed 100 nM to 1.5 nM, 25 C, 1:1 model, n = 5
Method: as §1

recombinant human M-CSF [6] = target: T1, recombinant human M-CSF; assay: SPR (Biacore), M-CSF amine-coupled on CM5 chip, antibody flowed 100 nM to 1.5 nM, 25 C, 1:1 model
Method: as §1

recombinant human M-CSF [7] = target: T1, recombinant human M-CSF; assay: SPR (Biacore), M-CSF amine-coupled on CM5 chip, antibody or Fab flowed, 25 C, 1:1 model
Method: Specifically, M-CSF was immobilized onto CM5 biosensor chip via amine coupling. 0.05 μg/ml M-CSF in 10mM Na Acetate pH 4.0 was injected at 1 μl/min for 5 minutes to achieve RL=6-12 RU. Test antibody (or Fab fragment) were flowed over the modified biosensor surface at varying concentrations. Test antibodies were diluted in 0.01 M HEPES pH 7.4, 0.15 M NaCL, 3 mM EDTA, 0.005% Surfactant P20 (HBS-EP) and all experiments were done at 25° C. Kinetic and affinity constants were determined using Biaevaluation software (Biacore) with a 1:1 interaction model/global fit.

recombinant human M-CSF [8] = target: T1, recombinant human M-CSF; assay: SPR (Biacore), M-CSF amine-coupled on CM5 chip, antibody flowed, 25 C, 1:1 model
Method: as §1

Binder | IC50 Fold Loss (recombinant human M-CSF [2]) | fold decrease in binding affinity compared to the parent murine antibody (recombinant human M-CSF [3]) | Kd (recombinant human M-CSF [8]) | koff (recombinant human M-CSF [8]) | kon (recombinant human M-CSF [8]) | further results
murine monoclonal antibody MC3 (antibody, V domains shown, Hybridoma ATCC PTA-6264) VH: DVQLQESGPGLVKPSQSLSLTCTVTGYSITSDYAWNWIRQFPGNKLEWMGYISYSGSTSYNPSLKSRISITRDTSKNQFFLQLNSVTTEDTATYYCARLETWLFDYWGQGTTLTVSS VL: not shown |  |  |  |  |  | Kd (recombinant human M-CSF [1]): 0.27 nM; koff (recombinant human M-CSF [1]): 0.000193 s⁻¹; kon (recombinant human M-CSF [1]): 704000 M⁻¹ s⁻¹
heRX1-1.G2 (antibody, The legends may have 45 and 48 exchanged; also called heRX1-1-IgG2; heRX1-1.IgG2; not shown: human Gamma-2 heavy chain constant region; human Kappa light chain constant region (the printed V regions end in EIKRT, which may overlap its start)) heavy: DVQLQESGPGLVKPSQTLSLTCTVTDYSITSDYAWNWIRQFPGKKLEWMGYISYSGSTSYNPSLKSRITISRDTSKNQFSLQLNSVTAADTATYYCASFDYAHAMDYWGQGTTVTVSS light: EIVLTQSPGTLSVSPGERVTFSCRASQSIGTSIHWYQQKTGQSPRLLIKYASERISGIPDRFSGSGSGTDFTLTISRVESEDFADYYCQQINSWPTTFGQGTKLEIKRT | 2.8 fold | ≥ 7 fold |  |  |  | Kd (recombinant human M-CSF [4]): 5.9 nM; koff (recombinant human M-CSF [4]): 0.00137 s⁻¹; kon (recombinant human M-CSF [4]): 236000 M⁻¹ s⁻¹; Kd (recombinant human M-CSF [5]): 5.9 nM; koff (recombinant human M-CSF [5]): 0.00137 s⁻¹; kon (recombinant human M-CSF [5]): 236000 M⁻¹ s⁻¹
heRX1-1.G4 (antibody, also called heRX1-1-IgG4; heRX1-1.IgG4; not shown: human Kappa light chain constant region (the printed V regions end in EIKRT, which may overlap its start)) heavy: not shown light: EIVLTQSPGTLSVSPGERVTFSCRASQSIGTSIHWYQQKTGQSPRLLIKYASERISGIPDRFSGSGSGTDFTLTISRVESEDFADYYCQQINSWPTTFGQGTKLEIKRT |  |  |  |  |  | Kd (recombinant human M-CSF [6]): 1.42 nM; koff (recombinant human M-CSF [6]): 0.000293 s⁻¹; kon (recombinant human M-CSF [6]): 207000 M⁻¹ s⁻¹
rRX1 Fab (mouse) (Fab, V domains shown, Fab fragment; also called Fab fragment of RX1) VH: DVQLQESGPGLVKPSQSLSLTCTVTDYSITSDYAWNWIRQFPGNKLEWMGYISYSGSTSYNPSLKSRISITRDTSKNQFFLQLNSVTTEDTATYYCASFDYAHAMDYWGQGTSVTVSS VL: not shown |  |  |  |  |  | Kd (recombinant human M-CSF [7]): 10.8 nM; koff (recombinant human M-CSF [7]): 0.00303 s⁻¹; kon (recombinant human M-CSF [7]): 281000 M⁻¹ s⁻¹
heRX1-1.G1 (antibody, heavy pMXC29 Low Risk (Kabat), Gamma 1; also called heRX1-1-IgG1; heRX1-1.IgG1; not shown: human Kappa light chain constant region (the printed V regions end in EIKRT, which may overlap its start)) heavy: not shown light: EIVLTQSPGTLSVSPGERVTFSCRASQSIGTSIHWYQQKTGQSPRLLIKYASERISGIPDRFSGSGSGTDFTLTISRVESEDFADYYCQQINSWPTTFGQGTKLEIKRT |  |  |  |  |  | Kd (recombinant human M-CSF [6]): 0.95 nM; koff (recombinant human M-CSF [6]): 0.000238 s⁻¹; kon (recombinant human M-CSF [6]): 250000 M⁻¹ s⁻¹
heRX1-7.G2 (antibody, V domains shown, copies: 2 + 2) VH: DVQLQESGPGLVKPSQTLSLTCTVTDYSITSDYAWNWIRQFPGKKLEWMGYISYSGSTSYNPSLKSRITISRDTSKNQFSLQLNSVTAADTATYYCASFDYAHAMDYWGQGTTVTVSS VL: EIVLTQSPGTLSVSPGERVTFSCRASQSIGTSIHWYQQKTGQAPRLLIKYASESISGIPDRFSGSGSGTDFTLTISRVESEDFADYYCQQINSWPTTFGQGTKLEIK | 6.1 fold | ≥ 7 fold | 9.5 nM | 0.00149 s⁻¹ | 157000 M⁻¹ s⁻¹ | 
heRX1-3.G2 (antibody, V domains shown, not shown: human Gamma-2 heavy chain constant region; human Kappa light chain constant region (the printed V regions end in EIKRT, which may overlap its start)) VH: DVQLQESGPGLVKPSQTLSLTCTVTDYSITSDYAWNWIRQFPGKKLEWMGYISYSGSTSYNPSLKSRITISRDTSKNQFSLQLNSVTAADTATYYCASFDYAHAMDYWGQGTTVTVSS VL: EIVLTQSPGTLSVSPGERVTFSCRASQSIGTSIHWYQQKTGQAPRLLIKYASERATGIPDRFSGSGSGTDFTLTISRVESEDFADYYCQQINSWPTTFGQGTKLEIKR | 5.3 fold | ≥ 7 fold | 5.9 nM | 0.00118 s⁻¹ | 201000 M⁻¹ s⁻¹ | 
heRX1-5.G2 (antibody, V domains shown, not shown: human Gamma-2 heavy chain constant region; human Kappa light chain constant region (the printed V regions end in EIKRT, which may overlap its start)) VH: DVQLQESGPGLVKPSQTLSLTCTVTDYSITSDYAWNWIRQFPGKKLEWMGYISYSGSTSYNPSLKSRITISRDTSKNQFSLQLNSVTAADTATYYCASFDYAHAMDYWGQGTTVTVSS VL: EIVLTQSPGTLSVSPGERVTFSCRASQSIGTSIHWYQQKTGQSPRLLIKYASESISGIPDRFSGSGSGTDFTLTISRVESEDFADYYCQQINSWPTTFGQGTKLEIKR | 6.5 fold | ≥ 7 fold | 7.4 nM | 0.00129 s⁻¹ | 175000 M⁻¹ s⁻¹ | 
heRX1-4.G2 (antibody, V domains shown, not shown: human Gamma-2 heavy chain constant region; human Kappa light chain constant region (the printed V regions end in EIKRT, which may overlap its start)) VH: QVQLQESGPGLVKPSQTLSLTCTVSDYSITSDYAWNWIRQFPGKGLEWMGYISYSGSTSYNPSLKSRITISRDTSKNQFSLQLNSVTAADTAVYYCASFDYAHAMDYWGQGTTVTVSS VL: EIVLTQSPGTLSVSPGERVTFSCRASQSIGTSIHWYQQKTGQAPRLLIKYASERATGIPDRFSGSGSGTDFTLTISRVESEDFADYYCQQINSWPTTFGQGTKLEIKR | 4.6 fold | ≥ 7 fold | 4.6 nM | 0.00108 s⁻¹ | 238000 M⁻¹ s⁻¹ | 
heRX1-2.G2 (antibody, V domains shown, not shown: human Gamma-2 heavy chain constant region; human Kappa light chain constant region (the printed V regions end in EIKRT, which may overlap its start)) VH: QVQLQESGPGLVKPSQTLSLTCTVSDYSITSDYAWNWIRQFPGKGLEWMGYISYSGSTSYNPSLKSRITISRDTSKNQFSLQLNSVTAADTAVYYCASFDYAHAMDYWGQGTTVTVSS VL: EIVLTQSPGTLSVSPGERVTFSCRASQSIGTSIHWYQQKTGQSPRLLIKYASERISGIPDRFSGSGSGTDFTLTISRVESEDFADYYCQQINSWPTTFGQGTKLEIKR | 3.1 fold | ≥ 7 fold | 7.6 nM | 0.00165 s⁻¹ | 218000 M⁻¹ s⁻¹ | 
murine monoclonal antibody 5H4 (antibody, mouse IgG1, kappa, V domains shown) VH: EIQLQQSGPELVKTGTSVKISCKASGYSFTGYFMHWVKQSHGKSLEWIGYISCYNGDTNYNQNFKGKATFTVDTSSSTAYMQFNSLTSEDSAVYYCAREGGNYPAYWGQGTLVTVSA VL: DIVMTQSHKFMSTSVGDRVTITCKASQNVGTAVTWYQQKPGQSPKLLIYWTSTRHAGVPDRFTGSGSGTDFTLTISDVQSEDLADYFCQQYSSYPLTFGAGTKLELKR |  |  |  |  |  | Kd (recombinant human M-CSF [1]): 3 nM; koff (recombinant human M-CSF [1]): 0.00177 s⁻¹; kon (recombinant human M-CSF [1]): 594000 M⁻¹ s⁻¹; Kd (recombinant human M-CSF [7]): 9.9 nM; koff (recombinant human M-CSF [7]): 0.00126 s⁻¹; kon (recombinant human M-CSF [7]): 127000 M⁻¹ s⁻¹

Now from value to binder, other results behind:

IC50 Fold Loss (recombinant human M-CSF [2]) | fold decrease in binding affinity compared to the parent murine antibody (recombinant human M-CSF [3]) | Kd (recombinant human M-CSF [8]) | koff (recombinant human M-CSF [8]) | kon (recombinant human M-CSF [8]) | Binder | further results
3.6 fold | ≥ 7 fold | 7.2 nM | 0.00144 s⁻¹ | 200000 M⁻¹ s⁻¹ | heRX1-9.G2 (antibody, V domains shown, not shown: human Gamma-2 heavy chain constant region; human Kappa light chain constant region (the V region entry may overlap its start)) VH: DVQLQESGPGLVKPSQTLSLTCTVTDYSITSDYAWNWIRQFPGKKLEWMGYISYSGSTSYNPSLKSRITISRDTSKNQFSLQLNSVTAADTATYYCASFDYAHAMDYWGQGTTVTVSS VL: DIVLTQSPAFLSVTPGEKVTFTCQASQSIGTSIHWYQQKTDQAPKLLIKYASESISGIPSRFSGSGSGTDFTLTISSVEAEDAADYYCQQINSWPTTFGGGTKLEIKR | 
5.9 fold | ≥ 7 fold | 9.8 nM | 0.00148 s⁻¹ | 152000 M⁻¹ s⁻¹ | heRX1-8.G2 (antibody, V domains shown, copies: 2 + 2) VH: QVQLQESGPGLVKPSQTLSLTCTVSDYSITSDYAWNWIRQFPGKGLEWMGYISYSGSTSYNPSLKSRITISRDTSKNQFSLQLNSVTAADTAVYYCASFDYAHAMDYWGQGTTVTVSS VL: EIVLTQSPGTLSVSPGERVTFSCRASQSIGTSIHWYQQKTGQAPRLLIKYASESISGIPDRFSGSGSGTDFTLTISRVESEDFADYYCQQINSWPTTFGQGTKLEIK | 
